Reference: publication PMC7031342, “REEP5 depletion causes sarco-endoplasmic reticulum vacuolization and cardiac functional defects” (Nature Communications, 2020)

B1: CnVA-tagged (StrepII-6xHis, 3xFlag) REEP5 (natural protein)
chain: not shown
notes: Receptor expression-enhancing protein 5 (REEP5), human, subcloned from NM_005669.4 into pLD-puro-CnVA; also called CnVA-REEP5; source: HEK293, transfected, in lysate; nickel-His purification
B2: REEP5-EYFP (natural protein)
chain: not shown
notes: Receptor expression-enhancing protein 5 (REEP5), human (NM_005669.4), parent of the EYFP tagged truncation mutants; source: C2C12 myoblasts, transfected, in lysate
B3: Δ1–36 REEP5-EYFP (domain or fragment)
chain: not shown
notes: REEP5, human (NM_005669.4), lacking residues 1-36; source: C2C12 myoblasts, transfected, in lysate
B4: REEP5-V5-6xHis (natural protein)
chain: not shown
notes: REEP5 was fused to a V5 tag followed by a 6xHis tag; source: HEK293, transfected, in lysate
B5: endogenous REEP5 (HEK293) (natural protein)
chain: not shown
notes: Receptor expression-enhancing protein 5 (REEP5), endogenous in HEK293 cells; source: endogenous, HEK293 lysate

Legend:
[1] = target: the molecule itself; assay: immunoblot of oligomer bands after SDS-PAGE; lysates and nickel-His eluate of transfected HEK293 cells; increasing DTT lowered the dimer band
[2] = target: the molecule itself; assay: immunoblot of oligomer bands after SDS-PAGE; C2C12 myoblasts transfected with EYFP tagged REEP5 and truncation mutants; SDS-resistant dimers

Protein	stoichiometry N [1]	stoichiometry N [2]
B1	2	–
B2	–	2
B3	–	2
B4	2	–
B5	2	–
